From article PMC5799372, “A NIN-LIKE PROTEIN mediates nitrate-induced control of root nodule symbiosis in Lotus japonicus”
Where a chain is given by its changes, count along the chain named.

What was measured:
NRSYM1(531-976)-myc [1] = target: T1, NRSYM1(531-976)-myc (Lotus japonicus (WT, MG-20?), UniProt A0A2Z5V8A6 531-976); experiment: EMSA; 20 mM HEPES-KOH pH 7.9, 50 mM KCl, 1 mM DTT, 4% glycerol, 0.1% Triton X-100, BSA (2 mg) and salmon sperm DNA (1 mg) as printed, 10 ul, 30 min room temperature; conditions: protein: ivt, tags: 3xMyc (cds cloned downstream of the tag, N-terminal), 5' overhang 4 nt (ggtg) on both strands as printed
NRSYM1(531-976)-myc [2] = target: T1, NRSYM1(531-976)-myc; experiment: competition; unlabeled competitor 20x/100x vs CLE-RS2-1 probe; 20 mM HEPES-KOH pH 7.9, 50 mM KCl, 1 mM DTT, 4% glycerol, 0.1% Triton X-100, BSA (2 mg) and salmon sperm DNA (1 mg) as printed, 10 ul, 30 min room temperature; conditions: protein: ivt; tags: 3xMyc (cds cloned downstream of the tag, N-terminal); label: biotin (probe); 5' overhang 4 nt (ggtg) on both strands as printed

T1 sequence (A0A2Z5V8A6 entry or part of it): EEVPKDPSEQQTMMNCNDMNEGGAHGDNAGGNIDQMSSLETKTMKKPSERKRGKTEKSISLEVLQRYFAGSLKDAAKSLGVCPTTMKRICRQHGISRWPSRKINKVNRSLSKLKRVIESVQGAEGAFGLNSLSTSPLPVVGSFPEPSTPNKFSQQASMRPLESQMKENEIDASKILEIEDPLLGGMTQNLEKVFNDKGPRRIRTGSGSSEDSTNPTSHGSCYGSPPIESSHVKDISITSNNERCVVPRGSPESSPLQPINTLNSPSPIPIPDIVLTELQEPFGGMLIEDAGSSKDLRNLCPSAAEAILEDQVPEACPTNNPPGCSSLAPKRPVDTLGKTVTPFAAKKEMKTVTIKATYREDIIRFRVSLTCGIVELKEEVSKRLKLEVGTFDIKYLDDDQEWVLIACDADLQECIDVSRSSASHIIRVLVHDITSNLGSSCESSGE

B1: CLE-RS2-4 (dsDNA)
DNA 1: GGTGATATATTCATGATCTTTAATTCACTTGAAGAGTTAGTGATTGAT
DNA 2: GGTGATCAATCACTAACTCTTCAAGTGAATTAAAGATCATGAATATAT
binding result (NRSYM1(531-976)-myc [1]; label: biotin (probe)): binds

B2: CLE-RS2-1 (dsDNA)
DNA 1: GGTGTGTGAGTTCTGACCCTTAAGCCTTGGAAAGGACAGTCATGCAA
DNA 2: GGTGTTGCATGACTGTCCTTTCCAAGGCTTAAGGGTCAGAACTCACA
binding result (NRSYM1(531-976)-myc [1]; label: biotin (probe)): binds

B3: CLE-RS2-1m (dsDNA)
DNA 1: B2 DNA 1 with C17G, C18G, C19G, T20A, T21A
DNA 2: B2 DNA 2 with A31T, A32T, G33C, G34C, G35C
binding result (NRSYM1(531-976)-myc [2]): no binding

B4: LjNIR1-3 (dsDNA)
DNA 1: GGTGACACAAACACGACCCTTTGTCACAACCAAAGGTCCATTGTAGCA
DNA 2: GGTGTGCTACAATGGACCTTTGGTTGTGACAAAGGGTCGTGTTTGTGT
binding result (NRSYM1(531-976)-myc [1]; label: biotin (probe)): binds

B5: LjNIR1-3m1 (dsDNA)
DNA 1: B4 DNA 1 with C17G, C18G, C19G, T20A, T21A
DNA 2: B4 DNA 2 with A32T, A33T, G34C, G35C, G36C
binding result (NRSYM1(531-976)-myc [1]; label: biotin): no binding

B6: CLE-RS2-3 (dsDNA)
DNA 1: GGTGGTATCAAACTGACCCCTAGTTTCAGTCCAAAGCCACCTTGATTG
DNA 2: GGTGCAATCAAGGTGGCTTTGGACTGAAACTAGGGGTCAGTTTGATAC
binding result (NRSYM1(531-976)-myc [1]; label: biotin (probe)): binds
